Biological target: T1, Ubc12^N8 (Homo sapiens, UniProt P61081+Q15843, C111S)
T1 construct: DEN1 which processes NEDD8 to its mature, 76-amino acid form; made in house; conjugate made enzymatically in vitro
Assay: Biolayer interferometry, immobilized Ubc12^N8
Format: binding
Conditions: for Kd: binding to immobilized Ubc12^N8
Description: V5-tagged GlyRS and Flag-tagged Ubc12-C111S genes were co-transfected to HEK293 cell for the assay. FIG. 3B: Strong binding of Ubc12^N8 to GlyRS as determined by biolayer interferometry. A.U. indicates Arbitrary Unit. Binding analysis to immobilized GST-GlyRS was carried out with the same concentration (62.5 nM) of NEDD8, Ubc12, or Ubc12^N8 at 30°. FIG. 3C: Biolayer interferometry analysis confirms that GlyRS binding to Ubc12^N8. Binding analysis to immobilized Ubc12^N8 was carried out with a range of concentrations of full-length (8.07 nM-129 nM) GlyRS. FIG. 3D: Structural model of the GlyRS-Ubc12^N8 interaction generated using Patchdock (a server for molecular docking). FIGS. 3E-G: Biolayer interferometry analysis confirms that F84-L93 and I232-M238 regions, but not Insertion 1, are important for GlyRS binding to Ubc12^N8. Binding analysis to immobilized Ubc12^N8 was carried out with a range of concentrations (1.25-20 μg/mL) of ΔF84-L93 (8.16-130 nM), ΔI232-M238 (8.13-130 nM), and Alnsertion 1 (62.5-125 nM) GlyRS. FIG. 3H: Over-expression of ΔI232-M238 GlyRS in HEK293 cells cannot promote NEDD8 conjugation of Ubc12. HEK293 cells were transfected with pcDNA6V5 vectors containing the indicated gene fragment with a V5-tag.
The conjugated Ubc12 was prepared by mixing APPBP1/UBA3 (2 μM), Ubc12 (C111S; the mutant would form a stable ester linkage to NEDD8) (70 μM), and His-SUMO-tagged NEDD8 (100 μM). The mixture was incubated at 25° C. for 16 h in 50 mM NaOAc pH 5.5, 50 mM NaCl, 1 mM MgCl2, and 2 mM ATP. Ubc12^N8 was then purified by gel filtration chromatography using a Superdex 200 column. The fractions containing only Ubc12^N8 were concentrated and used for the study. The purity of proteins was examined by SDS-PAGE to be above 95%.
The dissociation constants (Kd) were obtained with biolayer interferometry by using an Octet QK system (ForteBio, Menlo Park, Calif., USA). Samples or buffer were dispensed into 96-well plates (Millipore, Billerica, Mass.) at 200 μL per well. Operating temperature was maintained at 30° C. Proteins were diluted into kinetic buffer (PBS with 0.1% BSA and 0.002% Tween-20) and immobilized on either anti-GST or Ni-NTA sensor tips. The other proteins were diluted using the same buffer into a range of different concentrations. Assays with Ubc12^N8 were carried out using the acid kinetic buffer (50 mM NaOAc pH 5.5, 50 mM NaCl, 0.1% BSA, and 0.002% Tween-20). The raw data were processed by subtraction to reference cells and then aligned with baselines. The dissociation constants Kd were obtained by fitting the processed data using the 1:1 model in the Octet analysis software with R^2>0.99.
Indeed, GlyRS can bind to Ubc12^N8 in HEK293 cells as detected by co-immunoprecipitation (FIG. 3a). […] To quantify the difference, Ubc12^N8 was enzymatically made and purified, and its binding affinity to GlyRS was measured using biolayer interferometry. […] Therefore, it is possible that GlyRS enhances neddylation by protecting reaction intermediate Ubc12^N8.
Using the crystal structure of human GlyRS16 and of Ubc12N8 (adapted from its complex with substrate cullin and E3), a model was generated for the GlyRS-Ubc12^N8 interaction using the Patchdock algorithm (http://bioinfo3d.cs.tau.ac.il/PatchDock/). […]

T1 sequence (P61081 whole entry C111S): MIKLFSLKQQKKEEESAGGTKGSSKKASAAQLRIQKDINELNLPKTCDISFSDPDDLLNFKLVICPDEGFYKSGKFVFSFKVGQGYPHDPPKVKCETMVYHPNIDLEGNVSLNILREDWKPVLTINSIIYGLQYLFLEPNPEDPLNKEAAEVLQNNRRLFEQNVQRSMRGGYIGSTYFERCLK
T1 sequence (Q15843 1-76 limits assumed): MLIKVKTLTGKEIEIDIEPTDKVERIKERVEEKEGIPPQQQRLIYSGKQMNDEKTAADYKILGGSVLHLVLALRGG

| Molecule | Kd [nM] | fold decrease of binding of GlyRS to Ubc12^N8 (versus full-length GlyRS) [fold] | binding of GlyRS to Ubc12^N8 (immobilized Ubc12^N8, FIG. 3f) |
| --- | --- | --- | --- |
| GlyRS: human Glycyl-tRNA synthetase, recombinant full-length protein (SEQ ID NO: 2) (protein, listed as Homo sapiens) MDGAGAEEVLAPLRLAVRQQGDLVRKLKEDKAPQVDVDKAVAELKARKRVLEAKELALQPKDDIVDRAKMEDTLKRRFFYDQAFAIYGGVSGLYDFGPVGCALKNNIIQTWRQHFIQEEQILEIDCTMLTPEPVLKTSGHVDKFADFMVKDVKNGECFRADHLLKAHLQKLMSDKKCSVEKKSEMESVLAQLDNYGQQELADLFVNYNVKSPITGNDLSPPVSFNLMFKTFIGPGGNMPGYLRPETAQGIFLNFKRLLEFNQGKLPFAAAQIGNSFRNEISPRSGLIRVREFTMAEIEHFVDPSEKDHPKFQNVADLHLYLYSAKAQVSGQSARKMRLGDAVEQGVINNTVLGYFIGRIYLYLTKVGISPDKLRFRQHMENEMAHYACDCWDAESKTSYGWIEIVGCADRSCYDLSCHARATKVPLVAEKPLKEPKTVNVVQFEPSKGAIGKAYKKDAKLVMEYLAICDECYITEMEMLLNEKGEFTIETEGKTFQLTKDMINVKRFQKTLYVEEVVPNVIEPSFGLGRIMYTVFEHTFHVREGDEQRTFFSFPAVVAPFKCSVLPLSQNQEFMPFVKELSEALTRHGVSHKVDDSSGSIGRRYARTDEIGVAFGVTIDFDTVNKTPHTATLRDRDSMRQIRAEISELPSIVQDLANGNITWADVEARYPLFEGQETGKKETIEE | 3.21 ± 0.17 | – | – |
| A84-93: GlyRS deletion mutant, F84-L93 replaced by GGG (protein) MDGAGAEEVLAPLRLAVRQQGDLVRKLKEDKAPQVDVDKAVAELKARKRVLEAKELALQPKDDIVDRAKMEDTLKRRFFYDQAGGGYDFGPVGCALKNNIIQTWRQHFIQEEQILEIDCTMLTPEPVLKTSGHVDKFADFMVKDVKNGECFRADHLLKAHLQKLMSDKKCSVEKKSEMESVLAQLDNYGQQELADLFVNYNVKSPITGNDLSPPVSFNLMFKTFIGPGGNMPGYLRPETAQGIFLNFKRLLEFNQGKLPFAAAQIGNSFRNEISPRSGLIRVREFTMAEIEHFVDPSEKDHPKFQNVADLHLYLYSAKAQVSGQSARKMRLGDAVEQGVINNTVLGYFIGRIYLYLTKVGISPDKLRFRQHMENEMAHYACDCWDAESKTSYGWIEIVGCADRSCYDLSCHARATKVPLVAEKPLKEPKTVNVVQFEPSKGAIGKAYKKDAKLVMEYLAICDECYITEMEMLLNEKGEFTIETEGKTFQLTKDMINVKRFQKTLYVEEVVPNVIEPSFGLGRIMYTVFEHTFHVREGDEQRTFFSFPAVVAPFKCSVLPLSQNQEFMPFVKELSEALTRHGVSHKVDDSSGSIGRRYARTDEIGVAFGVTIDFDTVNKTPHTATLRDRDSMRQIRAEISELPSIVQDLANGNITWADVEARYPLFEGQETGKKETIEE | 27 ± 0.4 | 9 | – |
| A232-238: GlyRS deletion mutant, I232-M238 replaced by GG (protein) MDGAGAEEVLAPLRLAVRQQGDLVRKLKEDKAPQVDVDKAVAELKARKRVLEAKELALQPKDDIVDRAKMEDTLKRRFFYDQAFAIYGGVSGLYDFGPVGCALKNNIIQTWRQHFIQEEQILEIDCTMLTPEPVLKTSGHVDKFADFMVKDVKNGECFRADHLLKAHLQKLMSDKKCSVEKKSEMESVLAQLDNYGQQELADLFVNYNVKSPITGNDLSPPVSFNLMFKTFGGPGYLRPETAQGIFLNFKRLLEFNQGKLPFAAAQIGNSFRNEISPRSGLIRVREFTMAEIEHFVDPSEKDHPKFQNVADLHLYLYSAKAQVSGQSARKMRLGDAVEQGVINNTVLGYFIGRIYLYLTKVGISPDKLRFRQHMENEMAHYACDCWDAESKTSYGWIEIVGCADRSCYDLSCHARATKVPLVAEKPLKEPKTVNVVQFEPSKGAIGKAYKKDAKLVMEYLAICDECYITEMEMLLNEKGEFTIETEGKTFQLTKDMINVKRFQKTLYVEEVVPNVIEPSFGLGRIMYTVFEHTFHVREGDEQRTFFSFPAVVAPFKCSVLPLSQNQEFMPFVKELSEALTRHGVSHKVDDSSGSIGRRYARTDEIGVAFGVTIDFDTVNKTPHTATLRDRDSMRQIRAEISELPSIVQDLANGNITWADVEARYPLFEGQETGKKETIEE | – | – | abolished the binding completely |
| Insertion 1: GlyRS with Insertion 1 deleted (F147-F224 replaced by GSGSGG) (protein) MDGAGAEEVLAPLRLAVRQQGDLVRKLKEDKAPQVDVDKAVAELKARKRVLEAKELALQPKDDIVDRAKMEDTLKRRFFYDQAFAIYGGVSGLYDFGPVGCALKNNIIQTWRQHFIQEEQILEIDCTMLTPEPVLKTSGHVDKFADGSGSGGNLMFKTFIGPGGNMPGYLRPETAQGIFLNFKRLLEFNQGKLPFAAAQIGNSFRNEISPRSGLIRVREFTMAEIEHFVDPSEKDHPKFQNVADLHLYLYSAKAQVSGQSARKMRLGDAVEQGVINNTVLGYFIGRIYLYLTKVGISPDKLRFRQHMENEMAHYACDCWDAESKTSYGWIEIVGCADRSCYDLSCHARATKVPLVAEKPLKEPKTVNVVQFEPSKGAIGKAYKKDAKLVMEYLAICDECYITEMEMLLNEKGEFTIETEGKTFQLTKDMINVKRFQKTLYVEEVVPNVIEPSFGLGRIMYTVFEHTFHVREGDEQRTFFSFPAVVAPFKCSVLPLSQNQEFMPFVKELSEALTRHGVSHKVDDSSGSIGRRYARTDEIGVAFGVTIDFDTVNKTPHTATLRDRDSMRQIRAEISELPSIVQDLANGNITWADVEARYPLFEGQETGKKETIEE | 4.32 ± 0.12 | – | – |

Reference: patent US20190381086A1, “INHIBITION OF NEDDYLATION USING GLYCYL-tRNA SYNTHETASE INHIBITORS” (The Scripps Research Institute, priority 2015, published 2019)
